Measured values: the supplement of paper PMC9112550, “Optimization of the antimicrobial peptide Bac7 by deep mutational scanning” (BMC Biology, 2022)

Test system: Escherichia coli TOP10
Assay: shrunken log2 fold change of peptide-encoding DNA abundance (4.5 h post-induction vs induction); higher = less antimicrobial activity (less host growth inhibition)
Settings: time post-induction: 4.5 h; library: site-saturation at positions 5, 18, 19, 20
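Note: peptides expressed intracellularly from a pBAD plasmid library in pooled LB shake-flask culture, induced with 0.3% L-arabinose, DNA abundance read by NGS, three biological replicates, DESeq2 with apeglm shrinkage.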

Sequence	shrunken log2 fold change
RRIRGRPPRLPRPRPRPIMHPRP	0.341
RRIRGRPPRLPRPRPRPIMQPRP	0.105
RRIRGRPPRLPRPRPRPINIPRP	0.00461
RRIRGRPPRLPRPRPRPIPYPRP	-0.1
RRIRGRPPRLPRPRPRPIQKPRP	0.0229
RRIRGRPPRLPRPRPRPIREPRP	-0.0123
RRIRGRPPRLPRPRPRPIRPPRP	0.209
RRIRGRPPRLPRPRPRPIRYPRP	-0.0811
RRIRGRPPRLPRPRPRPISDPRP	0.385
RRIRGRPPRLPRPRPRPITFPRP	-0.148
RRIRGRPPRLPRPRPRPITRPRP	0.133
RRIRGRPPRLPRPRPRPIVHPRP	0.342
RRIRGRPPRLPRPRPRPIVYPRP	-0.0951
RRIRGRPPRLPRPRPRPIWIPRP	0.0517
RRIRGRPPRLPRPRPRPIWQPRP	0.349
RRIRGRPPRLPRPRPRPIWSPRP	0.15
RRIRGRPPRLPRPRPRPIYMPRP	-0.191
RRIRGRPPRLPRPRPRPKCGPRP	0.814
RRIRGRPPRLPRPRPRPKDIPRP	-0.0187
RRIRGRPPRLPRPRPRPKFAPRP	0.684
RRIRGRPPRLPRPRPRPKFDPRP	0.867
RRIRGRPPRLPRPRPRPKFIPRP	-0.425
RRIRGRPPRLPRPRPRPKFYPRP	-0.278
RRIRGRPPRLPRPRPRPKGCPRP	2.83
RRIRGRPPRLPRPRPRPKGMPRP	0.442

Sequence	shrunken log2 fold change
RRIRGRPPRLPRPRPRPKHIPRP	-0.00571
RRIRGRPPRLPRPRPRPKINPRP	0.426
RRIRGRPPRLPRPRPRPKKCPRP	0.544
RRIRGRPPRLPRPRPRPKLTPRP	0.808
RRIRGRPPRLPRPRPRPKMKPRP	0.723
RRIRGRPPRLPRPRPRPKNRPRP	0.368
RRIRGRPPRLPRPRPRPKPIPRP	0.177
RRIRGRPPRLPRPRPRPKQHPRP	0.906
RRIRGRPPRLPRPRPRPKRVPRP	0.198
RRIRGRPPRLPRPRPRPKSSPRP	0.508
RRIRGRPPRLPRPRPRPKSVPRP	0.591
RRIRGRPPRLPRPRPRPKTDPRP	0.797
RRIRGRPPRLPRPRPRPKTGPRP	0.692
RRIRGRPPRLPRPRPRPKTNPRP	0.779
RRIRGRPPRLPRPRPRPKVYPRP	-0.0773
RRIRGRPPRLPRPRPRPKWQPRP	0.194
RRIRGRPPRLPRPRPRPLAAPRP	1.91
RRIRGRPPRLPRPRPRPLAWPRP	1.43
RRIRGRPPRLPRPRPRPLCQPRP	0.712
RRIRGRPPRLPRPRPRPLDDPRP	1.09
RRIRGRPPRLPRPRPRPLDGPRP	0.342
RRIRGRPPRLPRPRPRPLDIPRP	-0.0476
RRIRGRPPRLPRPRPRPLELPRP	0.741
RRIRGRPPRLPRPRPRPLFHPRP	0.134
RRIRGRPPRLPRPRPRPLGCPRP	1.27

Sequence	shrunken log2 fold change
RRIRGRPPRLPRPRPRPLHQPRP	0.665
RRIRGRPPRLPRPRPRPLKRPRP	0.216
RRIRGRPPRLPRPRPRPLNPPRP	0.215
RRIRGRPPRLPRPRPRPLPEPRP	0.884
RRIRGRPPRLPRPRPRPLQGPRP	0.226
RRIRGRPPRLPRPRPRPLQVPRP	0.458
RRIRGRPPRLPRPRPRPLWCPRP	0.204
RRIRGRPPRLPRPRPRPLWFPRP	0.183
RRIRGRPPRLPRPRPRPLWHPRP	0.552
RRIRGRPPRLPRPRPRPLWVPRP	0.472
RRIRGRPPRLPRPRPRPLYLPRP	-0.221
RRIRGRPPRLPRPRPRPMAEPRP	1.73
RRIRGRPPRLPRPRPRPMAFPRP	0.572
RRIRGRPPRLPRPRPRPMCFPRP	0.716
RRIRGRPPRLPRPRPRPMENPRP	0.47
RRIRGRPPRLPRPRPRPMERPRP	1.36
RRIRGRPPRLPRPRPRPMFMPRP	0.0699
RRIRGRPPRLPRPRPRPMGWPRP	0.967
RRIRGRPPRLPRPRPRPMHTPRP	1.25
RRIRGRPPRLPRPRPRPMLPPRP	0.242
RRIRGRPPRLPRPRPRPMLVPRP	0.418
RRIRGRPPRLPRPRPRPMNHPRP	0.116
RRIRGRPPRLPRPRPRPMNMPRP	-0.318
RRIRGRPPRLPRPRPRPMQDPRP	0.108
RRIRGRPPRLPRPRPRPMQIPRP	0.406
